Results on 5 molecules are retold here after US20150376271 (published 2015).

“And” between values parts separate entries of the source, which are not always exact repeats. Equal entries are not always repeated. Where two headings read alike, the source gives them in different places.

In test [1] the target is T1, PDGF-BB (human, UniProt P01127).
T1 chain: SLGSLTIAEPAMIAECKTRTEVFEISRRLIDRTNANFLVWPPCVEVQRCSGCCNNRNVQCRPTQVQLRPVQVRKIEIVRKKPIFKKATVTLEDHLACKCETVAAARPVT
Kind of test: SPR, 25C.

The target in test [2] is T2, VEGFA-165 (human, UniProt P15692).
T2 chain: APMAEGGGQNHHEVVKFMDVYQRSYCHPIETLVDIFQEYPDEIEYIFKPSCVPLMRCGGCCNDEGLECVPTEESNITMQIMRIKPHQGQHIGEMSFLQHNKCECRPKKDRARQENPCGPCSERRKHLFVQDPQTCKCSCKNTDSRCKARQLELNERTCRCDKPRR
Nature of the test: competition.

Test [3] has as its target T2, VEGFA-165. Nature of the test: competition.
Test [4] deals with T2, VEGFA-165. Kind of test: SPR. (Surface plasmon resonance follows binding to a sensor surface in real time, without labels.)
Test [5] addresses T3, VEGF121 (human, UniProt P15692).
T3 chain: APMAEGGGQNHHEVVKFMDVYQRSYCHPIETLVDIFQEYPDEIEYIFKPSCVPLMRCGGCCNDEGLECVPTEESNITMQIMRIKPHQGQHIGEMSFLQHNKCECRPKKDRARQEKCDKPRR
Kind of test: SPR.

Test [6] deals with T3, VEGF121. Nature of the test: SPR.

B1: OG1321 (antibody)
chain 1: LVVTPPGPELVLNVSSTFVLTCSGSAPVVWERMSQEPPQEMAKAQDGTFSSVLTLTNLTGLDTGEYFCTHNDSRGLETDERKRLYIFVPDPTVGFLPNDAEELFIFLTEITEITIPCRVTDPQLVVTLHEKKGDVALPVPYDHQRGFSGIFEDRSYICKTTIGDREVDSDAYYVYRLQVSSINVSVNAVQTVVRQGENITLMCIVIGNEVVNFEWTYPRKESGRLVEPVTDFLLDMPYHIRSILHIPSAELEDSGTYTCNVTESVNDHQDEKAINITVVESGGGGGSGGGGSEVQLVESGGGLVQPGGSLRLSCAASGYDFTHYGMNWVRQAPGKGLEWVGWINTYTGEPTYAADFKRRFTFSLDTSKSTAYLQMNSLRAEDTAVYYCAKYPYYYGTSHWYFDVWGQGTLVTVSSASTKGPSVFPLAPSSKSTSGGTAALGCLVKDYFPEPVTVSWNSGALTSGVHTFPAVLQSSGLYSLSSVVTVPSSSLGTQTYICNVNHKPSNTKVDKKVEPKSCDKTHTCPPCPAPEAAGAPSVFLFPPKPKDTLMISRTPEVTCVVVDVSHEDPEVKFNWYVDGVEVHNAKTKPREEQYNSTYRVVSVLTVLHQDWLNGKEYKCKVSNKALPAPIEKTISKAKGQPREPQVYTLPPSREEMTKNQVSLTCLVKGFYPSDIAVEWESNGQPENNYKTTPPVLDSDGSFFLYSKLTVDKSRWQQGNVFSCSVMHEALHNHYTQKSLSCSPGK
chain 2: not shown
modifications: TAF443 protein, unconjugated
For orientation: Kd means a measure of binding affinity in units of concentration. Low values mean tighter binding, high ones weaker binding. With B1, binding in test [1] was characterised by a dissociation constant (Kd) of 14 pM. This lies in the picomolar range.

B2: OG1448 (antibody)
chain 1: LVVTPPGPELVLNVSSTFVLTCSGSAPVVWERMSQEPPQEMAKAQDGTFSSVLTLTNLTGLDTGEYFCTHNDSRGLETDERKRLYIFVPDPTVGFLPNDAEELFIFLTEITEITIPCRVTDPQLVVTLHEKKGDVALPVPYDHQRGFSGIFEDRSYICKTTIGDREVDSDAYYVYRLQVSSINVSVNAVQTVVRQGENITLMCIVIGNEVVNFEWTYPRKESGRLVEPVTDFLLDMPYHIRSILHIPSAELEDSGTYTCNVTESVNDHQDEKAINITVVESGGGGGSGGGGSEVQLVESGGGLVQPGGSLRLSCAASGYDFTHYGMNWVRQAPGKGLEWVGWINTYTGEPTYAADFKRRFTFSLDTSKSTAYLQMNSLRAEDTAVYYCAKYPYYYGTSHWYFDVWGQGTLVTVSSASTKGPSVFPLAPSSKSTSGGTAALGCLVKDYFPEPVTVSWNSGALTSGVHTFPAVLQSSGLYSLSSVVTVPSSSLGTQTYICNVNHKPSNTKVDKKVEPKSCDKTHTCPPCPAPEAAGAPSVFLFPPKPKDTLMISRTPEVTCVVVDVSHEDPEVKFNWYVDGVEVHNAKTKPREEQYNSTYRVVSVLTVLHQDWLNGKEYKCKVSNKALPAPIEKTISKAKGQPREPQVYTLPPSREEMTKNQVSLTCLVKGFYPSDIAVEWESNGQPENNYKTTPPVLDSDGSFFLYSKLTVDKSRWQQGNVFSCSVMHEALHNHYTQKSLSCSPGK
chain 2: not shown
For orientation: IC50 means the point on the concentration scale where inhibition reaches its midpoint. Take B2: the concentration for half-maximal inhibition (IC50) in test [2] was 10100 pM; in test [3] it was 8500 pM. This molecule also came in with a Kd in test [4] of 5.1 pM.

B3: OG1321 (antibody)
chain 1: LVVTPPGPELVLNVSSTFVLTCSGSAPVVWERMSQEPPQEMAKAQDGTFSSVLTLTNLTGLDTGEYFCTHNDSRGLETDERKRLYIFVPDPTVGFLPNDAEELFIFLTEITEITIPCRVTDPQLVVTLHEKKGDVALPVPYDHQRGFSGIFEDRSYICKTTIGDREVDSDAYYVYRLQVSSINVSVNAVQTVVRQGENITLMCIVIGNEVVNFEWTYPRKESGRLVEPVTDFLLDMPYHIRSILHIPSAELEDSGTYTCNVTESVNDHQDEKAINITVVESGGGGGSGGGGSEVQLVESGGGLVQPGGSLRLSCAASGYDFTHYGMNWVRQAPGKGLEWVGWINTYTGEPTYAADFKRRFTFSLDTSKSTAYLQMNSLRAEDTAVYYCAKYPYYYGTSHWYFDVWGQGTLVTVSSASTKGPSVFPLAPSSKSTSGGTAALGCLVKDYFPEPVTVSWNSGALTSGVHTFPAVLQSSGLYSLSSVVTVPSSSLGTQTYICNVNHKPSNTKVDKKVEPKSCDKTHTCPPCPAPEAAGAPSVFLFPPKPKDTLMISRTPEVTCVVVDVSHEDPEVKFNWYVDGVEVHNAKTKPREEQYNSTYRVVSVLTVLHQDWLNGKEYKCKVSNKALPAPIEKTISKAKGQPREPQVYTLPPSREEMTKNQVSLTCLVKGFYPSDIAVEWESNGQPENNYKTTPPVLDSDGSFFLYSKLTVDKSRWQQGNVFSCSVMHEALHNHYTQKSLSCSPGK
chain 2: not shown
Molecule B3 registered an IC50 in test [3] of 12500 pM. In addition, binding in test [4] was put at a Kd of 9.8 pM.

B4: TAF347 (antibody)
chain 1: LVVTPPGPELVLNVSSTFVLTCSGSAPVVWERMSQEPPQEMAKAQDGTFSSVLTLTNLTGLDTGEYFCTHNDSRGLETDERKRLYIFVPDPTVGFLPNDAEELFIFLTEITEITIPCRVTDPQLVVTLHEKKGDVALPVPYDHQRGFSGIFEDRSYICKTTIGDREVDSDAYYVYRLQVSSINVSVNAVQTVVRQGENITLMCIVIGNEVVNFEWTYPRKESGRLVEPVTDFLLDMPYHIRSILHIPSAELEDSGTYTCNVTESVNDHQDEKAINITVVESGGGGGSGGGGSEVQLVESGGGLVQPGGSLRLSCAASGYDFTHYGMNWVRQAPGKGLEWVGWINTYTGEPTYAADFKRRFTFSLDTSKSTAYLQMNSLRAEDTAVYYCAKYPYYYGTSHWYFDVWGQGTLVTVSSASTKGPSVFPLAPSSKSTSGGTAALGCLVKDYFPEPVTVSWNSGALTSGVHTFPAVLQSSGLYSLSSVVTVPSSSLGTQTYICNVNHKPSNTKVDKKVEPKSCDKTHTCPPCPAPEAAGAPSVFLFPPKPKDTLMISRTPEVTCVVVDVSHEDPEVKFNWYVDGVEVHNAKTKPREEQYNSTYRVVSVLTVLHQDWLNGKEYKCKVSNKALPAPIEKTISKAKGQPREPCVYTLPPSREEMTKNQVSLTCLVKGFYPSDIAVEWESNGQPENNYKTTPPVLDSDGSFFLYSKLTVDKSRWQQGNVFSCSVMHEALHNHYTQKSLSLSPGK
chain 2: not shown
With B4, the Kd is 280 pM and 182 pM in test [5]; 231 pM in test [6].

B5: TAF443 (antibody)
chain 1: LVVTPPGPELVLNVSSTFVLTCSGSAPVVWERMSQEPPQEMAKAQDGTFSSVLTLTNLTGLDTGEYFCTHNDSRGLETDERKRLYIFVPDPTVGFLPNDAEELFIFLTEITEITIPCRVTDPQLVVTLHEKKGDVALPVPYDHQRGFSGIFEDRSYICKTTIGDREVDSDAYYVYRLQVSSINVSVNAVQTVVRQGENITLMCIVIGNEVVNFEWTYPRKESGRLVEPVTDFLLDMPYHIRSILHIPSAELEDSGTYTCNVTESVNDHQDEKAINITVVESGGGGGSGGGGSEVQLVESGGGLVQPGGSLRLSCAASGYDFTHYGMNWVRQAPGKGLEWVGWINTYTGEPTYAADFKRRFTFSLDTSKSTAYLQMNSLRAEDTAVYYCAKYPYYYGTSHWYFDVWGQGTLVTVSSASTKGPSVFPLAPSSKSTSGGTAALGCLVKDYFPEPVTVSWNSGALTSGVHTFPAVLQSSGLYSLSSVVTVPSSSLGTQTYICNVNHKPSNTKVDKKVEPKSCDKTHTCPPCPAPEAAGAPSVFLFPPKPKDTLMISRTPEVTCVVVDVSHEDPEVKFNWYVDGVEVHNAKTKPREEQYNSTYRVVSVLTVLHQDWLNGKEYKCKVSNKALPAPIEKTISKAKGQPREPQVYTLPPSREEMTKNQVSLTCLVKGFYPSDIAVEWESNGQPENNYKTTPPVLDSDGSFFLYSKLTVDKSRWQQGNVFSCSVMHEALHNHYTQKSLSCSPGK
chain 2: not shown
Consider B5, for which the Kd in test [5] was 230 pM and 219 pM; in test [6], 224 pM.
